From patent CN114891097A (INST MICROBIOLOGY CAS, dated 2022)

Molecular target: SARS-CoV-2 RBD-hFc蛋白 (SARS-CoV-2 RBD fused to a human Fc tag) (SARS-CoV-2; human)

B1: S43纳米抗体 (alpaca-derived nanobody S43, with C-terminal 6xHis tag) (VHH)
VHH: QVQLQESGGGLVQPGGSLRLTCAPSGFTLDYYAIGWFRQAPGKEREGVSCISSNNSTYYADSVKGRFTISRDNAKNTVYLQMNSLKPEDTAVYYCAAEPDYSGVYYYTCGWTDFGSWGQGTQVTVSS
  Kd: 0.12 nM
